Reference: the Human Domainome abundance scans (Beltran et al. 2025)

B1: Gamma-crystallin C, residues 4 to 79; numbered along this chain, P07315 (parent)
chain: ITFYEDRAFQGRSYETTTDCPNLQPYFSRCNSIRVESGCWMLYERPNYQGQQYLLRRGEYPDYQQWMGLSDSIRSC
B2: WW domain-binding protein 4, residues 8 to 43; numbered along this chain, O75554 (parent)
chain: QPKKFCDYCKCWIADNRPSVEFHERGKNHKENVAKR

Variants of: B1
Assay: abundance fitness (aPCA) (normalised: wild type 0, dead -1); higher = more abundant; growth selection in yeast, the domain comes from the species named
Settings: Homo sapiens

Abundance fitness of substitutions, site by site:
N47: T -0.1
T18: F -0.014
L55: C -0.178
S72: A -0.136; H -0.172; G 0.022
D62: T -0.055
T17: E 0.046
C76: G 0.116
R34: M -0.153
D19: L 0.042
D6: A -0.103
F9: E -0.367
R29: F 0.103
I73: H -0.693
Q51: P -0.219
P25: I -0.174
Q52: C -0.138
S75: Q -0.327
N22: S 0.012
Y60: F -0.198
Y26: A 0.064; G 0.044
I33: V -0.094
V35: S -0.589

Variants of: B2
Assay: as above
Settings: Homo sapiens

Abundance fitness of substitutions, site by site:
I13: Q -0.529; A -0.531; N -0.308; V -0.089; G -0.449; S -0.473; T -0.261; K -0.853; E -0.226; R -0.532; C -0.427; D -0.171; P -0.488; Y 0.334; L -0.236; H -0.368; M 0.209
P2: V 0.06; T 0.109; K 0.294; D 0.365; L 0.045; Y -0.176; W -0.692; S 0.115; A 0.007; I 0.015; G 0.136; R 0.047; C -0.839; M 0.615; Q 0.179
K10: P -0.482; Y 0.002; Q -0.146; F -0.409; R -0.088; D 0.061; A -0.126; V -0.551; N -0.149; E -0.134; W -0.748; M -0.34; S -0.151; C -0.325
K4: G -0.497; D -0.573; C -0.453; S -0.212; M 0.13; Q -0.245; W -1.03; A -0.291; E -0.355; R -0.374; V -0.507; L -0.366; F -0.177; N -0.226; T -0.022
C6: R -0.691; K -0.216; G -1.07; M -0.654; W -1; V -0.756; P -0.466; T -0.521; E -0.546; F -0.653; L -0.862; S -0.615; A -0.471; N -0.919
P18: V -0.198; N -0.177; R -0.162; T -0.381; K -0.175; C -0.113; F -0.431; Y -0.194; E -0.048; M -0.002; A -0.108; S -0.192; Q -0.12; H -0.124; D -0.388; W -0.522; G -0.179; L -0.236; I -0.349
Y8: S -0.448; C -0.269; W -0.118; G -0.224; P 0.343; M 0.054; K -0.309; R -0.12; V -0.249; D 0.129; L -0.26; T -0.07; E 0.048
E21: A -0.163; C -0.36
K3: Y 0.045; W -0.997; H -0.569; Q 0.082; M 0.074; R 0.013; V -0.279; C -1.59; D -0.025; G -0.051; P -0.119; A -0.194; E 0.174; L -0.193; T -0.275; F -0.881; S -0.102
C11: W -0.589; H -0.335; L -0.045; Q 0.139; G -0.059; A 0.052; I 0.002; D 0.144; K -0.066; M 0.084; S 0.101; V 0.066; T 0.087; F -0.417; P -0.475
F5: P -0.551; M -0.085; D -0.533; Q -0.328; N -0.174; R -0.465; W -1.06; E -0.356; V -0.565; Y -0.087; K -0.502; A -0.261; G -0.786; S -0.468; I -0.379
V20: A 0.05; T -0.183; H -0.031; L -0.314; Q -0.254; P -0.512; S -0.336; R -0.226; M -0.015; N -0.033; W -0.189; G -0.272; I -0.275; Y -0.63; F -0.442; D -0.591; E -0.127; C -0.574
C9: G -0.525; A -0.787; S -0.116; T -0.635; D -0.541; M -1.23; E -0.603; V -1.28; Q -0.701; K -0.983; W -1.2; L -1.13
S19: A -0.058; H -0.269; Q -0.218; V -0.451; T -0.079; D -0.13; F -0.797; L -0.467; G -0.3; W -0.672; C -0.516; E -0.245; R -0.574; N -0.204; M -0.07; K -0.379
A14: G -0.286; W -0.338; K -0.251; D -0.2; C -0.169; E -0.048; S -0.343; R -0.381; L -0.558; Q -0.264; P -0.19; M -0.602; V -0.39
R17: Y -0.235; P 0.253; G 0.005; H -0.148; N -0.019; L -0.015; S 0.052; W -0.389; V 0.008; E -0.011; K -0.098; D 0.068; M 0.176; C 0.118; A 0.036; Q -0.008; T -0.03
Q1: M -0.242; R -0.979; G -0.548; T -0.509; K -0.879; L -0.654; I 0.404; H -0.275; A -0.931; S -0.651; W -1.47; E -0.941; Y -0.422; C -1.36; V -0.257
D7: Y -0.286; M -0.241; T 0.154; W -0.649; Q -0.113; V -0.6; P -0.529; S -0.131; G -0.173; E 0.007; L -0.209; K -0.272
W12: K -0.557; R -0.537; T -0.066; L -0.087; P 0.188; F -0.165; C -0.437; H 0.339; Q 0.077; G -0.331; D -0.219; M 0.075; E -0.238; I 0.139; A -0.209; S -0.261
N16: T 0.185; Q -0.073; F -0.143; E 0.027; G 0.151; D -0.233; H -0.105; W -0.268; R -0.141; A 0.135; Y -0.06; K 0.102; S -0.177; M 0.024; I 0.321; V -0.14; P 0.018; L -0.175
D15: A -0.145; M -0.128; P -0.186; L -0.332; V -0.313; T -0.075; S -0.236; N -0.249; R -0.328; K -0.367; Q -0.262; C -0.48; W -0.391; H -0.37; F -0.235; G -0.09
